Measured values as given in publication PMC2118669.

Biological target: recombinant AIF (UniProt Q9Z0X1)
Experiment: SPR

Sequence of UniProt Q9Z0X1 (Q9Z0X1 102-612): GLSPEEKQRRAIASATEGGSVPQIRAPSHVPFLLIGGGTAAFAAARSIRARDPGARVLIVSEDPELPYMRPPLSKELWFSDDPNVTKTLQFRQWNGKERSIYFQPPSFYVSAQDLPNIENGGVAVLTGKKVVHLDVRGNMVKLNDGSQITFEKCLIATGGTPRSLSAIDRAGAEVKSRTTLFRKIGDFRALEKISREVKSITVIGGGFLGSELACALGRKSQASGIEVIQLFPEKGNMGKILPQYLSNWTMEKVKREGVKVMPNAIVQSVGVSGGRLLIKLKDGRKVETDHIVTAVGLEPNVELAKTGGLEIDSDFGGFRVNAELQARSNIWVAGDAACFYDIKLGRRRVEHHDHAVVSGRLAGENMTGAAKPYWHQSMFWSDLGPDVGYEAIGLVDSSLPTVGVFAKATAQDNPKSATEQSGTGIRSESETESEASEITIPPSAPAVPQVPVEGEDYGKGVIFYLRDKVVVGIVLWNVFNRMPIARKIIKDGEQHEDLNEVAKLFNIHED

response (RU) on injection of 25 nM CypA: 123 RU
Substance: recombinant CypA (from UniProt P62937 1-165) (natural protein)
